According to PMC9482650, “Quantitative fragmentomics allow affinity mapping of interactomes” (Nature Communications, 2022):

How the values were obtained:
Assay in all cases: holdup assay
Set-up in all cases: key: below the threshold = too weak to quantify, mostly under pKd 3.1 to 4
MAGI2_5, Q86UL8 = target: MAGI2_5, Q86UL8
MPDZ_5, O75970 = target: T1, MPDZ_5, O75970
T1 sequence (O75970 695-796, limits assumed, looked up): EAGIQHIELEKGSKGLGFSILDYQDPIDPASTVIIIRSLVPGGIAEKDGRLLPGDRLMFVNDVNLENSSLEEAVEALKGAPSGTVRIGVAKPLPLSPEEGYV

MPP7, Q5T2T1 = target: T2, MPP7, Q5T2T1
T2 sequence (Q5T2T1 134-230, limits assumed, looked up): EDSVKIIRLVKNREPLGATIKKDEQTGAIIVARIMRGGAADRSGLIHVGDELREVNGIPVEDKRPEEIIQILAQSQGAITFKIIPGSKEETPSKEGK

DLG1_3, Q12959 = target: DLG1_3, Q12959
Sequence of DLG1_3, Q12959 (Q12959 457-571): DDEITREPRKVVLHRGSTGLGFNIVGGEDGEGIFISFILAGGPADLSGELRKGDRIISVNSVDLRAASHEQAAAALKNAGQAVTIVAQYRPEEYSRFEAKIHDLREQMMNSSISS

SNTB1, Q13884 = target: T3, SNTB1, Q13884
T3 sequence (Q13884 107-205, limits assumed, looked up): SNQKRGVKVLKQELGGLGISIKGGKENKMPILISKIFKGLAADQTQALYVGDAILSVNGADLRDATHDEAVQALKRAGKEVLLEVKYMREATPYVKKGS

GRIP1_2, Q9Y3R0 = target: T4, GRIP1_2, Q9Y3R0
T4 sequence (Q9Y3R0 145-248, limits assumed, looked up): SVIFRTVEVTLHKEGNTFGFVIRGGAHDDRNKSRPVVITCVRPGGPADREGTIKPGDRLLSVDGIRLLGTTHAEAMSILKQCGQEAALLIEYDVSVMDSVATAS

IL16_1, Q14005 = target: IL16_1, Q14005
Sequence of IL16_1, Q14005 (Q14005 210-306): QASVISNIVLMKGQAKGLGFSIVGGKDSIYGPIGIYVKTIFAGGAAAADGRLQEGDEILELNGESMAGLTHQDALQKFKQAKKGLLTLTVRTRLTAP

MPDZ_12, O75970 = target: T5, MPDZ_12, O75970
T5 sequence (O75970 1857-1958, limits assumed, looked up): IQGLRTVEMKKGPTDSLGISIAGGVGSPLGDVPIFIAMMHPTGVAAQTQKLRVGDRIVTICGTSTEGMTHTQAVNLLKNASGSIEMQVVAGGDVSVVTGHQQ

HTRA4, P83105 = target: T6, HTRA4, P83105
T6 sequence (P83105 378-476, limits assumed, looked up): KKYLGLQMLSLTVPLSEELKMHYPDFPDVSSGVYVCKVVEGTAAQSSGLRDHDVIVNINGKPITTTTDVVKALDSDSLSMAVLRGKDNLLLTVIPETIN

Inadl_3, Q8NI35 = target: Inadl_3, Q8NI35
Sequence of Inadl_3, Q8NI35 (Q8NI35 359-469): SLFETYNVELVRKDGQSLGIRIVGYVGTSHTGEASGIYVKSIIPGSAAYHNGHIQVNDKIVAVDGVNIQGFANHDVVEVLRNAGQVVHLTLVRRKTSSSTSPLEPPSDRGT

TJP2_1, Q9UDY2 = target: TJP2_1, Q9UDY2
Sequence of TJP2_1, Q9UDY2 (Q9UDY2 24-128): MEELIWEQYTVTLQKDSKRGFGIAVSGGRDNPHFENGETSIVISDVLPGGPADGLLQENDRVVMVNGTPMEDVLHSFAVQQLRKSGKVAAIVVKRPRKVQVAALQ

NHERF4_2, Q86UT5 = target: NHERF4_2, Q86UT5
Sequence of NHERF4_2, Q86UT5 (Q86UT5 220-308): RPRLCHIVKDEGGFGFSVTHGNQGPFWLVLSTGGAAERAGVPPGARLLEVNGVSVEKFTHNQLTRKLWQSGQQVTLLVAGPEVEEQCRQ

MAGI1_1, Q96QZ7 = target: MAGI1_1, Q96QZ7
Sequence of MAGI1_1, Q96QZ7 (Q96QZ7 1-106): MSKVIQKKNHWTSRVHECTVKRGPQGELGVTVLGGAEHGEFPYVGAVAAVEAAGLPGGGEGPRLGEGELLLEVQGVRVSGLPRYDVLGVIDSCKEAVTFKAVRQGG

FRMPD1, Q5SYB0 = target: T7, FRMPD1, Q5SYB0
T7 sequence (Q5SYB0 52-145, limits assumed, looked up): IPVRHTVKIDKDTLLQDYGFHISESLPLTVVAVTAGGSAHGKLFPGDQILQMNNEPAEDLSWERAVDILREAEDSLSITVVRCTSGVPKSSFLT

NHERF2_2, Q15599 = target: NHERF2_2, Q15599
Sequence of NHERF2_2, Q15599 (Q15599 142-238): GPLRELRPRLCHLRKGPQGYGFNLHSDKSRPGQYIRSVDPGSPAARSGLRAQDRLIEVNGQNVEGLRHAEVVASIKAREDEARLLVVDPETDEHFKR

GRID2IP_1, A4D2P6 = target: GRID2IP_1, A4D2P6
Sequence of GRID2IP_1, A4D2P6 (A4D2P6 1-87): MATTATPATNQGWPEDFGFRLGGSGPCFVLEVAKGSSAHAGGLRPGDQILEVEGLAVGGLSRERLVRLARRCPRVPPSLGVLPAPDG

TJP3_3, O95049 = target: T8, TJP3_3, O95049
T8 sequence (O95049 375-456, limits assumed, looked up): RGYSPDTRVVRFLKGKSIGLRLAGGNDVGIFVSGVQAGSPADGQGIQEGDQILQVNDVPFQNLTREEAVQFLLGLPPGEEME

GRIP2_7, Q9C0E4 = target: GRIP2_7, Q9C0E4
Sequence of GRIP2_7, Q9C0E4 (Q9C0E4 934-1023): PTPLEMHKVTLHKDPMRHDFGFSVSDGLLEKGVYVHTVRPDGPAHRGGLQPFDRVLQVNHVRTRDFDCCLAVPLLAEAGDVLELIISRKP

TIAM2, Q8IVF5 = target: T9, TIAM2, Q8IVF5
T9 sequence (Q8IVF5 885-986, limits assumed, looked up): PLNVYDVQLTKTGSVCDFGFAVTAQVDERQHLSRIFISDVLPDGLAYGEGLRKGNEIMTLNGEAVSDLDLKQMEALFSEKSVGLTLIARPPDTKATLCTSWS

Inadl_1, Q8NI35 = target: Inadl_1, Q8NI35
Sequence of Inadl_1, Q8NI35 (Q8NI35 113-229): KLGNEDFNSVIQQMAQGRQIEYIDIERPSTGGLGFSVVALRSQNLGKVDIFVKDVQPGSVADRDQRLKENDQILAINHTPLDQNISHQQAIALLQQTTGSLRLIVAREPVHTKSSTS

MAGI2_3, Q86UL8 = target: MAGI2_3, Q86UL8
Sequence of MAGI2_3, Q86UL8 (Q86UL8 600-682): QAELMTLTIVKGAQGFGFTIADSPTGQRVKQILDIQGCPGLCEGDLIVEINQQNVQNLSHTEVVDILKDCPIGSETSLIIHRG

PDZRN4_1, Q6ZMN7 = target: PDZRN4_1, Q6ZMN7
Sequence of PDZRN4_1, Q6ZMN7 (Q6ZMN7 213-318): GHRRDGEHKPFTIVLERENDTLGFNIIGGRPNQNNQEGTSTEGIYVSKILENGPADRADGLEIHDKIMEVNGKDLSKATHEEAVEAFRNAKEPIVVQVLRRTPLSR

FRMPD2_1, Q68DX3 = target: FRMPD2_1, Q68DX3
Sequence of FRMPD2_1, Q68DX3 (Q68DX3 770-861): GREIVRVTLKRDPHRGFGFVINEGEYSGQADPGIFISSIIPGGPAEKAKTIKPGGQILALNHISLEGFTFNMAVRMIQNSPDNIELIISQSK

MAGI2_4, Q86UL8 = target: MAGI2_4, Q86UL8
Sequence of MAGI2_4, Q86UL8 (Q86UL8 772-865): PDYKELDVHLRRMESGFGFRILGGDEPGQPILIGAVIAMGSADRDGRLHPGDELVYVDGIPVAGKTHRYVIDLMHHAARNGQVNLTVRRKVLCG

IL16_4, Q14005 = target: IL16_4, Q14005
Sequence of IL16_4, Q14005 (Q14005 1229-1329): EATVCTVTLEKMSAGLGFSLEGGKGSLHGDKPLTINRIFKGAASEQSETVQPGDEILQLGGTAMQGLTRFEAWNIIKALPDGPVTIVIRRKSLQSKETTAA

NHERF3_3, Q5T2W1 = target: T10, NHERF3_3, Q5T2W1
T10 sequence (Q5T2W1 238-333, limits assumed, looked up): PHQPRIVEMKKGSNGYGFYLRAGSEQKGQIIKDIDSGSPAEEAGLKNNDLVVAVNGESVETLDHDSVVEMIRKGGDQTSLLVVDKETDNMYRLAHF

Inadl_2, Q8NI35 = target: Inadl_2, Q8NI35
Sequence of Inadl_2, Q8NI35 (Q8NI35 238-335): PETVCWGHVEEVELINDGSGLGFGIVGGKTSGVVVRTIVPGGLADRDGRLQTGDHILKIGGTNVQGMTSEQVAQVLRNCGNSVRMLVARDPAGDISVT

AHNAK1, Q09666 = target: AHNAK1, Q09666
Sequence of AHNAK1, Q09666 (Q09666 4-100): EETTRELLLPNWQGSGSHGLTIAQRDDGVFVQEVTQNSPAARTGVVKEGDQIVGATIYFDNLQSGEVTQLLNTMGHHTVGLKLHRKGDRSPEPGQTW

[1] = plain residues with an end cap or a label only (N-terminal biotin on a linker: ahx)
[2] = plain residues with an end cap or a label only (N-terminal biotin on a linker: ttds)

Sequence of MAGI2_5, Q86UL8 (Q86UL8 915-1017): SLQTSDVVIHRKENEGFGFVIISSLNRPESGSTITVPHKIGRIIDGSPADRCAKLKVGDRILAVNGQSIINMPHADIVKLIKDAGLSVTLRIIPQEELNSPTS

Binder: ADENEQVSAV [RAPGEF6, Q8TEU7]
- pKd (MAGI2_5, Q86UL8; [1]): 4.38
- pKd (MPDZ_5, O75970; [1]): below the threshold
- pKd (MPP7, Q5T2T1; [1]): below the threshold
- pKd (DLG1_3, Q12959; [1]): below the threshold
- pKd (SNTB1, Q13884; [1]): 3.71
- pKd (GRIP1_2, Q9Y3R0; [1]): below the threshold
- pKd (IL16_1, Q14005; [1]): 4.23
- pKd (MPDZ_12, O75970; [1]): below the threshold
- pKd (HTRA4, P83105; [1]): below the threshold
- pKd (Inadl_3, Q8NI35; [1]): 3.63
- pKd (TJP2_1, Q9UDY2; [1]): below the threshold
- pKd (NHERF4_2, Q86UT5; [1]): below the threshold
- pKd (MAGI1_1, Q96QZ7; [1]): below the threshold
- pKd (FRMPD1, Q5SYB0; [1]): below the threshold
- pKd (NHERF2_2, Q15599; [1]): below the threshold
- pKd (GRID2IP_1, A4D2P6; [1]): below the threshold
- pKd (TJP3_3, O95049; [1]): below the threshold
- pKd (GRIP2_7, Q9C0E4; [1]): below the threshold
- pKd (TIAM2, Q8IVF5; [1]): below the threshold
- pKd (Inadl_1, Q8NI35; [1]): below the threshold
- pKd (MAGI2_3, Q86UL8; [1]): 4.15
- pKd (PDZRN4_1, Q6ZMN7; [1]): below the threshold
- pKd (FRMPD2_1, Q68DX3; [1]): below the threshold
- pKd (MAGI2_4, Q86UL8; [1]): below the threshold
- pKd (IL16_4, Q14005; [1]): below the threshold
- pKd (NHERF3_3, Q5T2W1; [1]): below the threshold
- pKd (Inadl_2, Q8NI35; [1]): below the threshold
- pKd (AHNAK1, Q09666; [1]): below the threshold

Binder: SAPATLSSRA [PDLIM2, Q96JY6]
- pKd (MAGI2_5, Q86UL8; [1]): below the threshold
- pKd (MPDZ_5, O75970; [1]): below the threshold
- pKd (MPP7, Q5T2T1; [1]): below the threshold
- pKd (DLG1_3, Q12959; [1]): below the threshold
- pKd (SNTB1, Q13884; [1]): below the threshold
- pKd (GRIP1_2, Q9Y3R0; [1]): below the threshold
- pKd (IL16_1, Q14005; [1]): below the threshold
- pKd (MPDZ_12, O75970; [1]): below the threshold
- pKd (HTRA4, P83105; [1]): below the threshold
- pKd (Inadl_3, Q8NI35; [1]): 3.48
- pKd (TJP2_1, Q9UDY2; [1]): below the threshold
- pKd (NHERF4_2, Q86UT5; [1]): below the threshold
- pKd (MAGI1_1, Q96QZ7; [1]): below the threshold
- pKd (FRMPD1, Q5SYB0; [1]): below the threshold
- pKd (NHERF2_2, Q15599; [1]): below the threshold
- pKd (GRID2IP_1, A4D2P6; [1]): below the threshold
- pKd (TJP3_3, O95049; [1]): below the threshold
- pKd (GRIP2_7, Q9C0E4; [1]): below the threshold
- pKd (TIAM2, Q8IVF5; [1]): below the threshold
- pKd (Inadl_1, Q8NI35; [1]): below the threshold
- pKd (MAGI2_3, Q86UL8; [1]): below the threshold
- pKd (PDZRN4_1, Q6ZMN7; [1]): below the threshold
- pKd (FRMPD2_1, Q68DX3; [1]): below the threshold
- pKd (MAGI2_4, Q86UL8; [1]): below the threshold
- pKd (IL16_4, Q14005; [1]): below the threshold
- pKd (NHERF3_3, Q5T2W1; [1]): below the threshold
- pKd (Inadl_2, Q8NI35; [1]): below the threshold
- pKd (AHNAK1, Q09666; [1]): below the threshold

Binder: SGGKRKETLV [NET1, Q7Z628]
- pKd (MAGI2_5, Q86UL8; [2]): 4.56
- pKd (MPDZ_5, O75970; [2]): below the threshold
- pKd (MPP7, Q5T2T1; [2]): below the threshold
- pKd (DLG1_3, Q12959; [2]): 4.44
- pKd (SNTB1, Q13884; [2]): 4.56
- pKd (GRIP1_2, Q9Y3R0; [2]): below the threshold
- pKd (IL16_1, Q14005; [2]): below the threshold
- pKd (MPDZ_12, O75970; [2]): below the threshold
- pKd (HTRA4, P83105; [2]): below the threshold
- pKd (Inadl_3, Q8NI35; [2]): below the threshold
- pKd (TJP2_1, Q9UDY2; [2]): 3.8
- pKd (NHERF4_2, Q86UT5; [2]): below the threshold
- pKd (MAGI1_1, Q96QZ7; [2]): below the threshold
- pKd (FRMPD1, Q5SYB0; [2]): below the threshold
- pKd (NHERF2_2, Q15599; [2]): below the threshold
- pKd (GRID2IP_1, A4D2P6; [2]): below the threshold
- pKd (TJP3_3, O95049; [2]): below the threshold
- pKd (GRIP2_7, Q9C0E4; [2]): below the threshold
- pKd (TIAM2, Q8IVF5; [2]): below the threshold
- pKd (Inadl_1, Q8NI35; [2]): below the threshold
- pKd (MAGI2_3, Q86UL8; [2]): 4.5
- pKd (PDZRN4_1, Q6ZMN7; [2]): 4.31
- pKd (FRMPD2_1, Q68DX3; [2]): 3.95
- pKd (MAGI2_4, Q86UL8; [2]): 4.75
- pKd (IL16_4, Q14005; [2]): below the threshold
- pKd (NHERF3_3, Q5T2W1; [2]): below the threshold
- pKd (Inadl_2, Q8NI35; [2]): below the threshold
- pKd (AHNAK1, Q09666; [2]): 3.56
